Laboratory results from PMC13635753, “Mechanism of NanR transcriptional activation of sialic acid metabolism in Streptococcus pneumoniae” (Nucleic Acids Research, 2025).
Numbering of substitutions follows the chain as printed. In names and notes the source's numbering stands. Several values for one entry are separate records, joined by “and”; a condition that tells them apart may be missing. Equal values may be shown once.

What was measured:
[1] = biological target: the molecule itself; assay: SAXS with in-line size exclusion chromatography; SpNanR without N-acetylmannosamine-6-phosphate
[2] = biological target: the molecule itself; assay: AUC; sedimentation velocity, SpNanR 0.27–153.5 μM with 2 mM N-acetylmannosamine-6-phosphate, 20 mM Tris–HCl pH 8.0, 300 mM NaCl, 20°C, 42 000 rpm; constant of: tetramer to dimers
[3] = biological target: the molecule itself; assay: AUC; sedimentation velocity, SpNanR 4.3–227.7 μM without N-acetylmannosamine-6-phosphate, 20 mM Tris–HCl pH 8.0, 300 mM NaCl, 20°C, 42 000 rpm; weight-averaged s fitted to a dimer–tetramer self-association model; constant of: tetramer to dimers
[4] = biological target: the molecule itself; assay: AUC; sedimentation velocity of SpNanR variants and wild type at 15 μM, without N-acetylmannosamine-6-phosphate
[5] = biological target: the molecule itself; assay: AUC; sedimentation velocity of SpNanR variants and wild type at 15 μM, with N-acetylmannosamine-6-phosphate
[6] = biological target: SpNanR R56A (Streptococcus pneumoniae, UniProt A0A0H2ZPE9 1-283, R56A); assay: MST; protein up to 5000 nM; MST: 20 mM Tris-HCl pH 8.0, 300 mM NaCl, 0.05% Tween-20, 20 C, 20 nM FAM-DNA; AUC: 50 nM FAM-DNA, 0.019-5 uM SpNanR, buffer not in the material; details: protein: recombinant; tags: none; chain copies: 2; label: 5'-FAM on sense strand
[7] = biological target: SpNanR T18A (Streptococcus pneumoniae, UniProt A0A0H2ZPE9 1-283, T18A); assay: as above; details: protein: recombinant; tags: none; chain copies: 2; label: 5'-FAM on sense strand
[8] = biological target: SpNanR R67A (Streptococcus pneumoniae, UniProt A0A0H2ZPE9 1-283, R67A); assay: as above; details: protein: recombinant; tags: none; chain copies: 2; label: 5'-FAM on sense strand
[9] = biological target: T1, SpNanR (Streptococcus pneumoniae, UniProt A0A0H2ZPE9 1-283); assay: MST; range over three sites; MST: 20 mM Tris-HCl pH 8.0, 300 mM NaCl, 0.05% Tween-20, 20 C, 20 nM FAM-DNA; AUC: 50 nM FAM-DNA, 0.019-5 uM SpNanR, buffer not in the material; details: protein: recombinant; tags: none; chain copies: 2; label: 5'-FAM on sense strand
[10] = biological target: T1, SpNanR; assay: fluorescence-detection AUC (sedimentation velocity); no effector; Hill n 2.3; MST: 20 mM Tris-HCl pH 8.0, 300 mM NaCl, 0.05% Tween-20, 20 C, 20 nM FAM-DNA; AUC: 50 nM FAM-DNA, 0.019-5 uM SpNanR, buffer not in the material; details: protein: recombinant; tags: none; chain copies: 2; label: 5'-FAM on sense strand
[11] = biological target: T1, SpNanR; assay: MST; protein up to 5000 nM; MST: 20 mM Tris-HCl pH 8.0, 300 mM NaCl, 0.05% Tween-20, 20 C, 20 nM FAM-DNA; AUC: 50 nM FAM-DNA, 0.019-5 uM SpNanR, buffer not in the material; details: protein: recombinant; tags: none; chain copies: 2; label: 5'-FAM on sense strand

B1: Streptococcus pneumoniae NanR (SpNanR), wild type (natural protein, UniProt A0A0H2ZPE9 1-283, looked up)
chain: MDKPDIATIIDSHFEEMTDLEQEIARYFLQAETITDDLSSQQVTQKLHISQAALTRFAKKCGFTGYREFIFQYQHQAENQANQVSKHSPLTKRVLRSYSNMREQTQDLIDEIQLERIAQLIEDAERIYFFGTGSSGLVAREMKLRFMRLGVVCEALTDQDGFAWTTSIMDENCLVLGFSLSGSTPSILDSLLDAKEMGAKTVLFTSVPNKNSQTYTETVLVATHSQPSYIQRISAQLPMLFFIDLIYAYFLEINRESKEKIFNSYWENKKLNGYRRQKRVRKS
notes: RpiR family transcriptional regulator NanR of Streptococcus pneumoniae, recombinant full length; intact mass 32 611 Da; Self-associates between dimer and tetramer; cloned into pET30ΔSE; no tag; also called SpNanR^WT; apo-SpNanR
stoichiometry N [1]: 4 and 2
Kd [2]: < 200 nM
Kd [3]: 97000 nM

B2: SpNanR^R148A (natural protein)
chain: B1 chain with R148A
notes: NanR of Streptococcus pneumoniae with R148A; Variant of the full-length recombinant SpNanR; source: E. coli BL21(DE3), recombinant
stoichiometry N [4]: 2

B3: SpNanR^D160A (natural protein)
chain: B1 chain with D160A
notes: NanR of Streptococcus pneumoniae with D160A; Variant of the full-length recombinant SpNanR; source: E. coli BL21(DE3), recombinant
stoichiometry N [5]: 4
stoichiometry N [4]: 2

B4: nanE recognition sequence (site 2), FAM (dsDNA)
DNA 1: TCTGAAAGTACTTTTAGA
DNA 2: TCTAAAAGTACTTTCAGA
binding result [6]: no binding
binding result [7]: no binding
binding result [8]: no binding
Kd [9]: ~603 nM
Kd [10]: 476 ± 75 nM

B5: nanE A10C (dsDNA)
DNA 1: TCTGAAAGTCCTTTTAGA
DNA 2: TCTAAAAGGACTTTCAGA
binding result [11]: no binding

B6: cryptic site downstream of siaA operon (site 4) (dsDNA)
DNA 1: TCTGAAACTACTTTCAGA
DNA 2: TCTGAAAGTAGTTTCAGA
Kd [9]: ~603 nM

B7: nanA recognition sequence (site 1) (dsDNA)
DNA 1: TCTGAAACTACTTTCAAA
DNA 2: TTTGAAAGTAGTTTCAGA
Kd [9]: ~603 nM

B8: nanE G4T (dsDNA)
DNA 1: TCTTAAAGTACTTTTAGA
DNA 2: TCTAAAAGTACTTTAAGA
binding result [11]: no binding
